{
  "source": "paper PMC3913127",
  "about": "(Nature immunology, 2012)",
  "target": "…-loaded H-2D^d (mouse | )",
  "assay": "SPR",
  "data": [
    {"binder": "Ly49A EC (entire extracellular domain of Ly49A, residues 67-262) (receptor, mouse (C57BL/6), UniProt P20937 67-262, looked up, biotin (biotinylated Ly49A EC, captured on streptavidin)) KIFQYDQQKNCEEFLNHHNNCSNMQSDINLKDEMLKNKSIECDLLESLNRDQNRLYNKTKTVLDSLQHTGRGDKVYWFCYGMKCYYFVMDRKTWSGCKQACQSSSLSLLKIDDEDELKFLQLVVPSDSCWVGLSYDNKKKDWAWIDNRPSKLALNTGKYNIRDGGCMLLSKTRLDNGNCDQVFICICGKRLDKFPH", "values": [
      {"measurement": "Kd", "value": "2050 ± 70", "unit": "nM"},
      {"measurement": "koff", "value": 0.00338, "unit": "s⁻¹"},
      {"measurement": "kon", "value": 1650, "unit": "M⁻¹ s⁻¹"}
    ]}
  ]
}
